Measured values taken from the RNAGym collection of RNA variant scans (doi:10.1093/molbev/msab373).

B1: Azoarcus group I ribozyme (parent)
chain: GUGCCUUGCGCCGGGAAACCACGCAAGGGAUGGUGUCAAAUUCGGCGAAACCUAAGCGCCCGCCCGGGCGUAUGGCAACGCCGAGCCAAGCUUCGGCGCCUGCGCCGAUGAAGGUGUAGAGACUAGACGGCACCCACCUAAGGCAAACGCUAUGGUGAAGGCAUAGUCCAGGGAGUGGCGAAAGUCACACAAACCGG

Variants of: B1
Experiment: reverse-splicing fitness (ratio to wild type); higher = more active; in vitro selection; Mg2+ level not given
Outline: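 An in vitro group I ribozyme library with randomized positions was T7-transcribed and gel-purified. In triplicate, 10 pmol RNA in EPPS pH 7.5 was reacted with 50 pmoles of a 30-nt RNA substrate for 1 h at 37 °C across several added MgCl2 levels (1–48 mM), then stopped with EDTA. Products were reverse transcribed from a substrate-complementary primer, PCR-amplified and sequenced (HiSeq 4000). Fitness is a variant's read proportion after selection over that before, normalised to wild type.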

Going from GUGCCUUGCGCCGGGAAACCACGCAAGGGAUGGUGUCAAAUUCGGCGAAACCUAAGCGCCCGCCCGGGCGUAUGGCAACGCCGAGCCAAGCUUCGGCGCCUGCGCCGAUGUAGGUGUAGAGACUAGACGGCACCCACCUAAGGCUAACGGUAUGGUGAAGGCAUAGUCGAGGGAGAGGCGAAAGUCACACAAACCGG [A111U A145U C150G C169G U176A] to GUGCCUUGCGCCGGGAAACCACGCAAGGGAUGGUGUCAAAUUCGGCGAAACCUAAGCGCCCGCCCGGGCGUAUGGCAACGCCGAGCCAAGCUUCGGCGCCUGCGCCGAUGUAGGUGUAGAGACUAGACGGCACCCACCUAAGGCUAACGGUAUGGUGAAGGCAUAGUCGAGGGAGCGGCGAAAGUCACACAAACCGG [A111U A145U C150G C169G U176C], the reverse-splicing fitness falls from 0.00711 to 0.00535.

First: GUGCCUUGCGCCGGGAAACCACGCAAGGGAUGGUGUCAAAUUCGGCGAAACCUAAGCGCCCGCCCGGGCGUAUGGCAACGCCGAGCCAAGCUUCGGCGCCUGCGCCGAUGUAGGUGUAGAGACUAGACGGCACCCACCUAAGGCUAACGGUAUGGUGAAGGCAUAGUCGAGGGAGGGGCGAAAGUCACACAAACCGG [A111U A145U C150G C169G U176G]
Second: GUGCCUUGCGCCGGGAAACCACGCAAGGGAUGGUGUCAAAUUCGGCGAAACCUAAGCGCCCGCCCGGGCGUAUGGCAACGCCGAGCCAAGCUUCGGCGCCUGCGCCGAUGUAGGUGUAGAGACUAGACGGCACCCACCUAAGGCUAACGGUAUGGUGAAGGCAUAGUCUAGGGAGUGGCGAAAGUCACACAAACCGG [A111U A145U C150G C169U]
The reverse-splicing fitness of the first is lower: 0.00534 for the first, 0.0168 for the second.

First: GUGCCUUGCGCCGGGAAACCACGCAAGGGAUGGUGUCAAAUUCGGCGAAACCUAAGCGCCCGCCCGGGCGUAUGGCAACGCCGAGCCAAGCUUCGGCGCCUGCGCCGAUGUAGGUGUAGAGACUAGACGGCACCCACCUAAGGCUAACGGUAUGGUGAAGGCAUAGUCUAGGGAGAGGCGAAAGUCACACAAACCGG [A111U A145U C150G C169U U176A]
Second: GUGCCUUGCGCCGGGAAACCACGCAAGGGAUGGUGUCAAAUUCGGCGAAACCUAAGCGCCCGCCCGGGCGUAUGGCAACGCCGAGCCAAGCUUCGGCGCCUGCGCCGAUGUAGGUGUAGAGACUAGACGGCACCCACCUAAGGCUAACGGUAUGGUGAAGGCAUAGUCUAGGGAGCGGCGAAAGUCACACAAACCGG [A111U A145U C150G C169U U176C]
The reverse-splicing fitness of the first is lower: 0.00897 for the first, 0.0129 for the second.

First: GUGCCUUGCGCCGGGAAACCACGCAAGGGAUGGUGUCAAAUUCGGCGAAACCUAAGCGCCCGCCCGGGCGUAUGGCAACGCCGAGCCAAGCUUCGGCGCCUGCGCCGAUGUAGGUGUAGAGACUAGACGGCACCCACCUAAGGCUAACGGUAUGGUGAAGGCAUAGUCUAGGGAGGGGCGAAAGUCACACAAACCGG [A111U A145U C150G C169U U176G]
Second: GUGCCUUGCGCCGGGAAACCACGCAAGGGAUGGUGUCAAAUUCGGCGAAACCUAAGCGCCCGCCCGGGCGUAUGGCAACGCCGAGCCAAGCUUCGGCGCCUGCGCCGAUGUAGGUGUAGAGACUAGACGGCACCCACCUAAGGCUAACGGUAUGGUGAAGGCAUAGUCCAGGGAGAGGCGAAAGUCACACAAACCGG [A111U A145U C150G U176A]
The reverse-splicing fitness of the first is lower: 0.00601 for the first, 0.138 for the second.

Compared with GUGCCUUGCGCCGGGAAACCACGCAAGGGAUGGUGUCAAAUUCGGCGAAACCUAAGCGCCCGCCCGGGCGUAUGGCAACGCCGAGCCAAGCUUCGGCGCCUGCGCCGAUGUAGGUGUAGAGACUAGACGGCACCCACCUAAGGCUAACGGUAUGGUGAAGGCAUAGUCCAGGGAGCGGCGAAAGUCACACAAACCGG [A111U A145U C150G U176C], GUGCCUUGCGCCGGGAAACCACGCAAGGGAUGGUGUCAAAUUCGGCGAAACCUAAGCGCCCGCCCGGGCGUAUGGCAACGCCGAGCCAAGCUUCGGCGCCUGCGCCGAUGUAGGUGUAGAGACUAGACGGCACCCACCUAAGGCUAACGGUAUGGUGAAGGCAUAGUCCAGGGAGGGGCGAAAGUCACACAAACCGG [A111U A145U C150G U176G] is lower in reverse-splicing fitness: 0.193 for the first, 0.025 for the second.

First: GUGCCUUGCGCCGGGAAACCACGCAAGGGAUGGUGUCAAAUUCGGCGAAACCUAAGCGCCCGCCCGGGCGUAUGGCAACGCCGAGCCAAGCUUCGGCGCCUGCGCCGAUGUAGGUGUAGAGACUAGACGGCACCCACCUAAGGCUAACGUUAUGGUGAAGGCAUAGUCCAGGGAGUGGCGAAAGUCACACAAACCGG [A111U A145U C150U]
Second: GUGCCUUGCGCCGGGAAACCACGCAAGGGAUGGUGUCAAAUUCGGCGAAACCUAAGCGCCCGCCCGGGCGUAUGGCAACGCCGAGCCAAGCUUCGGCGCCUGCGCCGAUGUAGGUGUAGAGACUAGACGGCACCCACCUAAGGCUAACGUUAUGGUGAAGGCAUAGUCAAGGGAGUGGCGAAAGUCACACAAACCGG [A111U A145U C150U C169A]
The reverse-splicing fitness of the first is higher: 0.88 for the first, 0.0209 for the second.

First: GUGCCUUGCGCCGGGAAACCACGCAAGGGAUGGUGUCAAAUUCGGCGAAACCUAAGCGCCCGCCCGGGCGUAUGGCAACGCCGAGCCAAGCUUCGGCGCCUGCGCCGAUGUAGGUGUAGAGACUAGACGGCACCCACCUAAGGCUAACGUUAUGGUGAAGGCAUAGUCAAGGGAGAGGCGAAAGUCACACAAACCGG [A111U A145U C150U C169A U176A]
Second: GUGCCUUGCGCCGGGAAACCACGCAAGGGAUGGUGUCAAAUUCGGCGAAACCUAAGCGCCCGCCCGGGCGUAUGGCAACGCCGAGCCAAGCUUCGGCGCCUGCGCCGAUGUAGGUGUAGAGACUAGACGGCACCCACCUAAGGCUAACGUUAUGGUGAAGGCAUAGUCAAGGGAGCGGCGAAAGUCACACAAACCGG [A111U A145U C150U C169A U176C]
The reverse-splicing fitness of the first is higher: 0.0144 for the first, 0.0104 for the second.

GUGCCUUGCGCCGGGAAACCACGCAAGGGAUGGUGUCAAAUUCGGCGAAACCUAAGCGCCCGCCCGGGCGUAUGGCAACGCCGAGCCAAGCUUCGGCGCCUGCGCCGAUGUAGGUGUAGAGACUAGACGGCACCCACCUAAGGCUAACGUUAUGGUGAAGGCAUAGUCAAGGGAGGGGCGAAAGUCACACAAACCGG [A111U A145U C150U C169A U176G] gave a reverse-splicing fitness of 0.00694.
